Test results from PMC2605743, “Lipid bilayer composition influences small multidrug transporters” (BMC Biochemistry, 2008).

Key:
EmrE = molecular target: T1, EmrE (Escherichia coli, UniProt P23895); assay: isothermal titration calorimetry; format: binding
T1 construct: dimer by TPP stoichiometry

[1] = test system: C[n+]1ccc(-c2cc[n+](C)cc2)cc1; assay: purified protein; conditions: labelled compound; DOPC liposomes without added DOPG; pH gradient (inside 7.5, outside 8); saturation incomplete, estimate

T1 sequence (P23895 whole entry): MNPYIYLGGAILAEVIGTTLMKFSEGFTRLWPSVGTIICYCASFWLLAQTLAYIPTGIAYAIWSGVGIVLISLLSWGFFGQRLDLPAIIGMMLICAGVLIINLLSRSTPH

Compound	Kd (EmrE) [nM]	Km [1] [µM]	Vmax [1] [µmol/min]
c1ccc([P+](c2ccccc2)(c2ccccc2)c2ccccc2)cc1 [TPP]	36		
EmrE (Escherichia coli K-12)		1100 ± 500	2
